This assay concerns the target T1, His-GBA3-HA (recombinant epitope-tagged cytosolic β-glycosidase GBA3) (human, UniProt Q9H227 1-469).
T1 construct: GBA3, cytosolic β-glycosidase, human; Construct pDEST17-His-GBA3-HA; also called β-galactosidase/β-glucosidase; source: E. coli BL21(AI), purified (Ni-Sepharose 6 Fast Flow); not shown: His6, N-terminal, kept; HA, C-terminal, kept
T1 sequence (looked up): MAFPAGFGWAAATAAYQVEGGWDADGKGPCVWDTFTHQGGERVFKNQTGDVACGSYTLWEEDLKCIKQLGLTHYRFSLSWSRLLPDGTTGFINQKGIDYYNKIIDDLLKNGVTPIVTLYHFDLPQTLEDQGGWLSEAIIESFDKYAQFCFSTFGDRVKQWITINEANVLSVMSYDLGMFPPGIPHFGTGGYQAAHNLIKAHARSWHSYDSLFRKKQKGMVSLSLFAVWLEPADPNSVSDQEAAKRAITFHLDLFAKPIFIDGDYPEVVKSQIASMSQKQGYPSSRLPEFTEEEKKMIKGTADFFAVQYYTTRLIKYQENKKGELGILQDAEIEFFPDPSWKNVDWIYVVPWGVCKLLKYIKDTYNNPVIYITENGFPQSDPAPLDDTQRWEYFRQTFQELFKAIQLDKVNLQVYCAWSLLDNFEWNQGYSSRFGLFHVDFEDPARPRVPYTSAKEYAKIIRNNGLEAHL
The experiment in a line: pull-down; purified recombinant proteins mixed overnight at 4 °C (1.5 mg/mL each), precipitated with 20 μL Ni-Sepharose 6 Fast Flow for 1 h at 4 °C (His-tagged protein held), washed three times with PBS, western blotting. Particulars: both partners purified. On the technique in general: A western blot detects proteins with antibodies after separation by electrophoresis.

B1: GST-NEU2 (recombinant cytosolic sialidase NEU2) (enzyme, human, UniProt Q9Y3R4 1-380, looked up)
chain: MASLPVLQKESVFQSGAHAYRIPALLYLPGQQSLLAFAEQRASKKDEHAELIVLRRGDYDAPTHQVQWQAQEVVAQARLDGHRSMNPCPLYDAQTGTLFLFFIAIPGQVTEQQQLQTRANVTRLCQVTSTDHGRTWSSPRDLTDAAIGPAYREWSTFAVGPGHCLQLHDRARSLVVPAYAYRKLHPIQRPIPSAFCFLSHDHGRTWARGHFVAQDTLECQVAEVETGEQRVVTLNARSHLRARVQAQSTNDGLDFQESQLVKKLVEPPPQGCQGSVISFPSPRSGPGSPAQWLLYTHPTHSWQRADLGAYLNPRPPAPEAWSEPVLLAKGSCAYSDLQSMGTGPDGSPLFGCLYEANDYEEIVFLMFTLKQAFPAEYLPQ
notes: NEU2, cytosolic sialidase; source: E. coli BL21(DE3), purified (Glutathione Sepharose 4B)
As to B1, the binding result is “binds”.

Source of the values: PMC4598761, “Co-Expression of NEU2 and GBA3 Causes a Drastic Reduction in Cytosolic Sialyl Free N-glycans in Human MKN45 Stomach Cancer Cells—Evidence for the Physical Interaction of NEU2 and GBA3” (Biomolecules, 2015).
